# B1: Harpin: Harpin protein, isolated from Erwinia amylovora (products known as Messenger, ProAct, Employ) (protein, UniProt Q01099 1-403, looked up)
# Harpin HrpN: MSLNTSGLGASTMQISIGGAGGNNGLLGTSRQNAGLGGNSALGLGGGNQNDTVNQLAGLLTGMMMMMSMMGGGGLMGGGLGGGLGNGLGGSGGLGEGLSNALNDMLGGSLNTLGSKGGNNTTSTTNSPLDQALGINSTSQNDDSTSGTDSTSDSSDPMQQLLKMFSEIMQSLFGDGQDGTQGSSSGGKQPTEGEQNAYKKGVTDALSGLMGNGLSQLLGNGGLGGGQGGNAGTGLDGSSLGGKGLQNLSGPVDYQQLGNAVGTGIGMKAGIQALNDIGTHSDSSTRSFVNKGDRAMAKEIGQFMDQYPEVFGKPQYQKGPGQEVKTDDKSWAKALSKPDDDGMTPASMEQFNKAKGMIKSAMAGDTGNGNLQARGAGGSSLGIDAMMAGDAINNMALGKLGAA
# What was measured:
# Assay type in all cases: in vivo
# [1] = system: mustard beetle larvae (Phaedon cochleariae); assay: Phaedon cochleariae larvae - spray application (Example 1); details: 48 h, read-out: Mortality in % after 2d
# Method: (§1) Solvent: 78.0 parts by weight of acetone
# (§2) • 1.5 parts by weight of dimethylformamide Emulsifier: 0.5 parts by weight of alkylaryl polyglycolether
# To produce a suitable preparation of active compound, 1 part by weight of active compound is mixed with the stated amount of solvent and emulsifier, and the concentrate is diluted with emulsifier-containing water to the desired concentration. The preparation of bacteria, fungi or yeast products contains 10^9-10^10 spores/g or cells/g, the preparation of the virus 10^13 particles/1. To produce a suitable preparation of a biological suspension the cells, viruses or spores are diluted with emulsifier-containing water to the desired concentration.
# Chinese cabbage (Brassica pekinensis) leaf-discs are sprayed with a preparation of the active ingredient of the desired concentration. Once dry, the leaf discs are infested with mustard beetle larvae (Phaedon cochleariae).
# After the specified period of time, mortality in % is determined. 100% means that all the beetle larvae have been killed; 0% means that none of the beetle larvae have been killed. The mortality values thus determined are recalculated using the Colby-formula.
# [2] = system: fall armyworm larvae (Spodoptera frugiperda); assay: Spodoptera frugiperda - spray application (Example 2); details: 1.5 g ai/ha
# Method: as §1, §2
# To produce a suitable preparation of active compound, 1 part by weight of active compound is mixed with the stated amount of solvent and emulsifier, and the concentrate is diluted with emulsifier-containing water to the desired concentration. The preparation of the bacteria, fungi or yeast products contains 10^9-10^10 spores/g or cells/g, the preparation of the virus 10^13 particles/1. To produce a suitable preparation of a biological suspension the cells, viruses or spores are diluted with emulsifier-containing water to the desired concentration.
# Corn (Zea mais) leaf-discs are sprayed with a preparation of the active ingredient of the desired concentration. Once dry, the leaf discs are infested with fall armyworm larvae (Spodoptera frugiperda).
# After the specified period of time, mortality in % is determined. 100% means that all the caterpillars have been killed; 0% means that none of the caterpillars have been killed. The mortality values thus determined are recalculated using the Colby-formula.
# [3] = system: two spotted spider mite (Tetranychus urticae); assay: Tetranychus urticae test (OP-resistant, spray application) (Example 3); details: 1.5 g ai/ha
# Method: Solvent: 78 parts by weight acetone
# • 1.5 parts by weight dimethylformamide Wetting agent: 0.5 parts by weight alkylarylpolyglcolether
# To produce a suitable preparation of active compound, 1 part by weight of active compound is mixed with the stated amount of solvent and emulsifier, and the concentrate is diluted with emulsifier-containing water to the desired concentration. The preparation of the bacteria, fungi or yeast products contains 10^9-10^10 spores/g or cells/g. To produce a suitable preparation of a biological suspension the cells, viruses or spores are diluted with emulsifier-containing water to the desired concentration.
# French beans (Phaseolus vulgaris) infected with all developmental stages of the two spotted spider mite (Tetranychus urticae), are sprayed with a preparation of the active ingredient at the desired dose rates.
# After the specified period of time, activity in % is determined Thus 100% means that all spider mites have been killed and 0% means that none of the spider mites have been killed. The mortality values determined thus are recalculated using the Colby-formula (see sheet 1).
molecule,measurement,setting,value
Cc1ccc(C(C)C)c(O)c1 [Thymol],mortality at 1000 g/ha,[1],0%
B1,Mortality in % after 2d,[2],0%
same,Mortality in % after 6d,[3],0%

# Source: patent US9572342B2, “Use of an anthranilic diamide derivatives with heteroaromatic and heterocyclic substituents in combination with a biologicalcontrol agent” (BAYER INTELLECTUAL PROPERTY GMBH, priority 2011, dated 2017)
